Data as given in US20050118668A1 (WISCONSIN ALUMNI RESEARCH FOUNDATION, published 2005).

Target: T1, T4moD (UniProt Q00459 2-103)
T1 construct: also called 11.6 kDa effector protein of the toluene-4-monooxygenase complex
T1 sequence: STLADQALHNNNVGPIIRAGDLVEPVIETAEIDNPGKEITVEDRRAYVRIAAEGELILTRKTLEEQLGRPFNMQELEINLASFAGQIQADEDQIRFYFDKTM
Assay: fluorescence anisotropy titration of 0.97 nM apo-fACP with T4moD

B1: apo-fACP (other)
chain: STIEERVKKIIGEQLGVKQEEVTNNASFVEDLGADSLDTVELVMALEEEFDTEIPDEEAEKITTVQAAIDYINGHQA
notes: mature; also called fACP (apo form, lacking phosphopantetheine)
binding result: no binding
